Biological target: T1, Tau fragment Ser-Ile-Asp-Met-Val-Asp-Ser-Pro-Gln-Leu-Ala-Thr-Leu-Ala-Asp (SEQ ID NO:10) (human)
T1 sequence (peptide, biotinylated): SIDMVDSPQLATLAD
Assay: ELISA, biotinylated peptide on streptavidin plate, absorbance 405 nm-492 nm

Max O.D. Tau fragment binding: 30 mE
B1: Mab2.10.3 (anti-Tau pS422 antibody) (antibody, IgG1, V domains shown)
VH: EVQLVESGGDLVRPGGSLKLSCAASGFTFRTYGMSWVRQTADKRLEWVATISSGGTYTYYADNVRERFTISRDNARDTLYLQMSRLESDDTAMYYCTRRYGYDGGGSFDVWGAGTRVTVSS
VL: EIVMTQAAPSVPVTPGESASISCRSNKSLLHSNGNTYLCWFLQRPGQSPQLLIYRMSTLAPGVPDRFSGSGSGTAFTLRISRLEAEDVGVYYCMQHIEYPLTFGAGTKLELK
